Results as given in patent US20050053993A1, “Uses of an endothelial cell receptor” (priority 2002, published 2005).
Ends that are not written are not given here. Peptide text beside a SMILES is read from it. * marks the point of attachment. Biotin = O=C1N[C@H]2[C@H](CS[C@H]2CCCCC(=O)*)N1

How the values were obtained:
[1] = molecular target: HMVEC (Homo sapiens, UniProt P11021); experiment: VEGF-stimulated HMVEC migration (Boyden chamber); type: cell-based; conditions: for inhibition of migration of activated endothelial cells (in words): compared to rK5; for IC50: read-out: IC50 values, inhibition of VEGF stimulation HMVEC migration, 3 ng/ml VEGF, 4 hours at 37° C., 48 well Boyden chamber
Protocol: Endothelial cell migration assays: The effect of rK5 on endothelial cell migration was determined by two different methods. The first assay was performed in a 96 well plate with a cellulose membrane between the upper and lower chambers. HMVEC were starved of growth factors overnight, labeled with fluorescent calcein AM (50-100 nM), plated into a 96 well migration chamber (2.9×10^4/well) (Neuroprobe, Gaitherburg, Md.), and stimulated to migrate with VEGF (5 ng/mL). After 4 h, migrated cells were measured by fluorescence (Frevert C W, Wong V A, Goodman R B, Goodwin R, Martin T R. Rapid fluorescence-based measurement of neutrophil migration in vitro. J Immunol Methods. 1998 Apr. 1;213(1):41-52). In a second assay for cellular migration, a standard Boyden chamber was used (Polyerini, P. J., Bouck, N. P. & Rastinejad, F. Assay and purification of naturally occurring inhibitor of angiogenesis. Meth. Enzymol. 198, 440-450 (1991)). HMVEC cells were starved overnight in DME containing 0.1% bovine serum albumin (BSA) and harvested by scraping and resuspended in DME with 0.1% BSA at 1.5×10^6 cells per ml. Cells were added to the bottom of a 48-well, Boyden chamber. The chamber was assembled and inverted, and cells were allowed to attach for 2 hours at 37° C. to polycarbonate chemotaxis membranes (5 μm pore size) that had been soaked in 0.1% gelatin overnight and dried. The chamber was re-inverted, test substances, including activators were added to the wells of the upper chamber and the apparatus was incubated for 4 hours at 37° C. Growth factors were used, where indicated, at concentrations determined in preliminary experiments to give equivalent migration responses of about 100 cells migrated/high powered field (400×). […] Membranes were recovered, fixed and stained and the number of cells that had migrated to the upper chamber per 10 high power fields counted. Background migration to DME+0.1% BSA was subtracted and the data reported as the number of cells migrated per 10 high power fields (400×) or, when results from multiple experiments were combined, as the percent inhibition of migration compared to the positive growth factor control (Polyerini, P. J., Bouck, N. P. & Rastinejad, F. Assay and purification of naturally occurring inhibitor of angiogenesis. Meth. Enzymol. 198, 440-450 (1991)).

[2] = molecular target: T1, GRP78 (bovine brain) (Bos taurus, UniProt Q0VCX2); experiment: Ultracentrifugation binding of I125rK5(dog) with GRP78; conditions: 1 nM I125rK5(dog) + 1.5 nM GRP78; peptides 100 nM, rK5 1 nM
T1 construct: from tissue; host or cells: bovine brain
Protocol: Ultra centrifugation with 50,000 MW cut off filters was used with iodinated recombinant dog K5 (I^125rKS(dog)) and GRP78 (bovine brain). The GRP78 and I^125rK5 (dog) were incubated for 1 hour at room temperature. The solution was then transferred to ultracentrifuges and spun at 10,000×g for 2 min. The top chamber contained GRP78 (mw 78,000) and I^125rK5 (dog) that bound. The top and bottom solutions were counted for I125. Column A: 1 nM I^125rK5(dog). Column B: 1 nM I^125rK5 (dog)+1.5 nM GRP78. Column C: 1 nM I^125rK5(dog)+1.5 nM GRP78+100 nM N-terminal K5 peptide, LLPDVETPSEED. Column D: 1 nM I^125rK5(dog)+1.5 nM GRP78±100 nM active site K5 peptide PRKLYDY. Column E: 1 nM I^125rK5(dog)+1.5 nM GRP78+1 nM rK5 (unlabeled). The GRP78 bound to the labeled rK5 causing its retention on the top of the filter.

[3] = system: HMVECs; experiment: Competition of 3HK5 binding to endothelial cells; set-up: species or system human; conditions: 2 nM 3HK5; rK5(K82A) up to 500 nM
Protocol: Each K5 peptide or a N-terminal antibody to GRP78 was added to HMVECs at various concentrations for 1 hour at room temperature. Cells were washed and the amount of ^3HK5 bound was counted.
Binding of human ^125IrK5 to Endothelial Cells: Tritium-labeled rK5 was added to monolayers of 50,000 HMVEC cells that were either starved or stimulated for 16 hours by 15 ng/ml bFGF and 5 ng/ml VEGF in 96 well plates. The number of counts remaining bound to the cells after extensive washing determined total amount of rK5 bound (Dudani A K, Ganz P R. Endothelial cell surface actin serves as a binding site for plasminogen, tissue plasminogen activator and lipoprotein(a). Br J Haematol. 1996 October; 95(1): 168-78). Binding of ^125IK5 (dog) to Endothelial Cells and rK5 to Recombinant GRP78: The same methods as described above for the expression and purification of human K5 were used to express dog rK5 in E. coli. ^125IK5 (dog) was added to the wells and incubated at room temperature for 1 hour. After 1 hour the cells were washed and lysed with M-Per (Pierce, Racine, Wis.) and the amount of ^125IK5 (dog) bound was counted. Scatchard plot analysis was performed using Prism (GraphPad Software, Inc., San Diego, Calif.) software. Competition binding against 5 nM ^125IK5 (dog) was tested using a monoclonal antibody against GRP78 (N-20, Santa Cruz, Calif.) or a monoclonal antibody against K5 (Green Mountain Antibodies, Burlington, Vt.). The antibodies were added to HMVECs at various concentrations for 1 hour at room temperature. Cells were washed and the amount of bound ^125IK5 (dog) bound was counted. Competition binding was also tested against 2 nM 3HK5. K5 peptides or a c-terminal antibody to GRP78 (A-129, Santa Cruz, Calif.) were added to HMVECs at various concentrations for 1 hour at room temperature. Cells were washed, lysed and the amount of ^3HK5 bound was estimated by scintillation counting.

[4] = system: EAHY cell surface proteins (~75 kDa and ~95 kDa); experiment: S-tag-K5 affinity pull-down of biotinylated EAHY surface proteins; type: binding; conditions: 100 nM S-tag-K5; 1 μM peptides, 10 μM cold rK5
Protocol: The second method used to identify cell surface rK5 binding proteins was described previously (Zhang, J. C., et al, supra). Surface proteins on 4×10^6 EaHy cells were labeled with NHS-biotin. The cells were washed and lysed (M-Per, Pierce). Cell lysates were mixed with S-tag K5 for 1 hour at room temperature. S-tag K5 bound proteins were precipitated with S-protein agarose (Pierce). Bound proteins were eluted with excess rK5 or with excess PRKLYDY (SEQ ID NO:1) peptide. Eluted proteins were visualized with avidin-HRP and a chemiluminescent substrate. Mass spectroscopic analysis was used to identify the major protein bands.
In particular, surface proteins on 1×10^6 EAHY cells were labeled with NHS-biotin. The cells were washed 3× with PBS and lysed with M-pur. Cell lysates were mixed with (A) 100 nM S-tag-K5, (B) 100 nM S-tag-K5 plus 1 μM PRKLYDY, (C) 100 nM S-tag-K5 plus 10 μM cold rK5 and (D) 100 nM S-tag-K5 and N-terminal K5 peptide at 1 μM for 1 hour at room temperature. The K5 binding proteins were precipitated with S-protein-agarose. Bound proteins were eluted with 50 mM glycine buffer at pH 3.0 and run for PAGE analysis. Surface proteins (biotinylated) that bind K5 were visualized with avidin-HPR and a chemiluminescent substrate.

[5] = molecular target: GRP78 on the surface of human cells (EAHY, HMVEC, HT1080) (human, UniProt P11021 19-654); experiment: cell-based or functional assay
Sequence of GRP78 on the surface of human cells (EAHY, HMVEC, HT1080) (P11021 19-654): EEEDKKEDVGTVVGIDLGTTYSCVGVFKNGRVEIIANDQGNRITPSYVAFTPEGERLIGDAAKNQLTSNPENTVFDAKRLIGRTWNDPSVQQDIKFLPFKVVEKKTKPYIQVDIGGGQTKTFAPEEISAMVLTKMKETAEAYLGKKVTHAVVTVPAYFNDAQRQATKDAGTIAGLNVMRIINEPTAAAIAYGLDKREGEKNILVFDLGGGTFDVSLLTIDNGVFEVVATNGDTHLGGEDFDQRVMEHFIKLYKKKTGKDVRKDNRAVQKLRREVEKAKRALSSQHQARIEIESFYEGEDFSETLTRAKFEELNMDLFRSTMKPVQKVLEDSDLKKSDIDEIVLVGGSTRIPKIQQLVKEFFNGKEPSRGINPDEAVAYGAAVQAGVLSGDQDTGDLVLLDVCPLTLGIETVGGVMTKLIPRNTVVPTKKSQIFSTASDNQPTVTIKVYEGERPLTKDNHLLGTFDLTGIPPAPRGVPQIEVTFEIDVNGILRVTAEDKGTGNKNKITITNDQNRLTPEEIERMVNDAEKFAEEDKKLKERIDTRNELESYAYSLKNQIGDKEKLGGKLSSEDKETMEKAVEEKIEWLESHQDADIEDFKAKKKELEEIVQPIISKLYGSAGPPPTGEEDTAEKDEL

Sequence of HMVEC (P11021 19-654): as above
T1 sequence (Q0VCX2 20-655): as the sequence (P11021 19-654) above, with I114V, G626S, D629E, T630A, E632D counted along it

## CC(C)C[C@H](NC(=O)[C@H](CCCCN)NC(=O)[C@H](CCCNC(=N)N)NC(=O)[C@@H]1CCCN1C(=O)CCCC[C@@H]1SC[C@@H]2NC(=O)N[C@@H]21)C(=O)N[C@@H](Cc1ccc(O)cc1)C(=O)N[C@@H](CC(=O)O)C(=O)N[C@@H](Cc1ccc(O)cc1)C(=O)O [Biotin-PRKLYDY] (Biotin-PRKLYDY-OH)
[1]
  inhibition of migration of activated endothelial cells (in words): similarly active

## KLYD (listed as Homo sapiens)
[1]
  inhibition of migration of activated endothelial cells (in words): equally potent compared to rK5

## CC(=O)N[C@@H](CC(=O)O)C(=O)N[C@H](C(=O)N1CCC[C@H]1C(=O)N[C@@H](CCC(N)=O)C(N)=O)C(C)C [Ac-DVPQ-NH2] (Ac-DVPQ-NH2)
[1]
  IC50: > 1000 nM

## Ac-MFGNGKGYRGKRATTVTGTP-NH2
[1]
  IC50: > 1000 nM

## Ac-KLYDY-NH2 [Ac-KLYDY-NH2]
[1]
  inhibition of migration of activated endothelial cells (in words): equally potent compared to rK5

## PRKLYDY (listed as Homo sapiens)
[1]
  inhibition of migration of activated endothelial cells (in words): equally potent compared to rK5
[2]
  inhibition of I125rK5(dog) binding to GRP78: inhibited
[3]
  blocking of 3HK5 binding to endothelial cells: blocked
[4]
  competition of protein binding to the S-tag K5 column: competed

## N-term-S-tag-Kringle 5: S-protein tagged rK5 used as probe for isolation of the cell surface receptor
[1]
  inhibition of migration of activated endothelial cells (in words): similarly active

## LLPDVETPSEED (listed as Homo sapiens)
[2]
  inhibition of I125rK5(dog) binding to GRP78: not
[3]
  blocking of 3HK5 binding to endothelial cells: not
[4]
  competition of protein binding to the S-tag K5 column: did not inhibit

## Ac-QDWAAQEPHRHSIFTPETNPRAGLEKNY-NH2
[1]
  IC50: > 1000 nM

## Ac-VLLPDVETPSEED-NH2 [Ac-VLLPDVETPSEED-NH2]
[1]
  IC50: > 1000 nM

## CC(=O)N[C@@H](CC(C)C)C(=O)N[C@@H](Cc1ccc(O)cc1)C(=O)N[C@@H](CC(=O)O)C(=O)N[C@@H](Cc1ccc(O)cc1)C(N)=O [Ac-LYDY-NH2] (Ac-LYDY-NH2)
[1]
  IC50: > 1000 nM

## Ac-KLYDY-NH2 [Ac-KLYDY-NH2]
[5]
  IC50, inhibition of VEGF stimulated HMVEC migration: 0.1 nM

## Ac-LYDY-NH2 [Ac-LYDY-NH2]
[5]
  IC50, inhibition of VEGF stimulated HMVEC migration: > 1000 nM

## Ac-RNPDGDVGGPW-NH2 [Ac-RNPDGDVGGPW-NH2]
[5]
  IC50, inhibition of VEGF stimulated HMVEC migration: 0.5 nM

## Ac-VLLPDVETPSEED-NH2 [Ac-VLLPDVETPSEED-NH2]
[5]
  IC50, inhibition of VEGF stimulated HMVEC migration: > 1000 nM

## Ac-RKLYDY-NH2 [Ac-RKLYDY-NH2]
[5]
  IC50, inhibition of VEGF stimulated HMVEC migration: 0.12 nM

## Ac-QDWAAQEPHRHSIFTPETNPRAGLEKNY-NH2 [Ac-QDWAAQEPHRHSIFTPETNPRAGLEKNY-NH2]
[5]
  IC50, inhibition of VEGF stimulated HMVEC migration: > 1000 nM

## Ac-DVPQ-NH2 [Ac-DVPQ-NH2]
[5]
  IC50, inhibition of VEGF stimulated HMVEC migration: > 1000 nM

B1: N-term-S-tag-Kringle 5 (ligand, human, UniProt P00747 481-560, looked up, not shown: small tags and cut ends)
chain: CMFGNGKGYRGKRATTVTGTPCQDWAAQEPHRHSIFTPETNPRAGLEKNYCRNPDGDVGGPWCYTTNPRKLYDYCDVPQC
[5]
  IC50, inhibition of VEGF stimulated HMVEC migration: 0.2 nM

## Ac-YTTNPRKLYDY-NH2 [Ac-YTTNPRKLYDY-HN2]
[5]
  IC50, inhibition of VEGF stimulated HMVEC migration: 0.2 nM

## Ac-MFGNGKGYRGKRATTVTGTP-NH2 [Ac-MFGNGKGYRGKRATTVTGTP-NH2]
[5]
  IC50, inhibition of VEGF stimulated HMVEC migration: > 1000 nM

## Biotin-PRKLYDY [N-terminally biotinylated PRKLYDY peptide]
[5]
  IC50, inhibition of VEGF stimulated HMVEC migration: 0.23 nM
